The values below are quoted from earlier work in paper PMC2919054.

For the series, the target named is ILT7 (Homo sapiens) (UniProt P59901). The experiment in a line: SPR. A general note: SPR reads the build-up and loss of mass on a sensor chip optically.
Chain of UniProt P59901 (P59901 24-499): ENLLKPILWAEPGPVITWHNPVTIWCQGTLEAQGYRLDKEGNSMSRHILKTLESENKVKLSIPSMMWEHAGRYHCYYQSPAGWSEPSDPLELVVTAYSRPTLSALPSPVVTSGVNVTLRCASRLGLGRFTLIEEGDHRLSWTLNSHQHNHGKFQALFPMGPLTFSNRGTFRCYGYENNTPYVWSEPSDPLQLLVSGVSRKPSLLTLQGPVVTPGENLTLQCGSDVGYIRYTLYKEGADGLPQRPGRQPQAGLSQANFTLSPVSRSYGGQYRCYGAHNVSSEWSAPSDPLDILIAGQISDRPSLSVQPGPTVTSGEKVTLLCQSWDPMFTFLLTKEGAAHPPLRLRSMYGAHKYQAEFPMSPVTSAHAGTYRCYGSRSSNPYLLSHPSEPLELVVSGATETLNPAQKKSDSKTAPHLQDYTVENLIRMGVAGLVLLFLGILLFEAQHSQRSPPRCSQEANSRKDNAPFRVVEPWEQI

Broadly, the Kd is the constant that tells how readily two partners part at equilibrium. As for BST2 (from UniProt Q10589), the Kd is 1000 nM.
